# Measurements published in IntAct's records for PubMed 25402481.
# B1: BBSome complex member BBS1 (Homo sapiens), Q8NFJ9 (parent)
# chain: MAAASSSDSDACGAESNEANSKWLDAHYDPMANIHTFSACLALADLHGDGEYKLVVGDLGPGGQQPRLKVLKGPLVMTESPLPALPAAAATFLMEQHEPRTPALALASGPCVYVYKNLRPYFKFSLPQLPPNPLEQDLWNQAKEDRIDPLTLKEMLESIRETAEEPLSIQSLRFLQLELSEMEAFVNQHKSNSIKRQTVITTMTTLKKNLADEDAVSCLVLGTENKELLVLDPEAFTILAKMSLPSVPVFLEVSGQFDVEFRLAAACRNGNIYILRRDSKHPKYCIELSAQPVGLIRVHKVLVVGSTQDSLHGFTHKGKKLWTVQMPAAILTMNLLEQHSRGLQAVMAGLANGEVRIYRDKALLNVIHTPDAVTSLCFGRYGREDNTLIMTTRGGGLIIKILKRTAVFVEGGSEVGPPPAQAMKLNVPRKTRLYVDQTLREREAGTAMHRAFQTDLYLLRLRAARAYLQALESSLSPLSTTAREPLKLHAVVQGLGPTFKLTLHLQNTSTTRPVLGLLVCFLYNEALYSLPRAFFKVPLLVPGLNYPLETFVESLSNKGISDIIKVLVLREGQSAPLLSAHVNMPGSEGLAAA
# partner: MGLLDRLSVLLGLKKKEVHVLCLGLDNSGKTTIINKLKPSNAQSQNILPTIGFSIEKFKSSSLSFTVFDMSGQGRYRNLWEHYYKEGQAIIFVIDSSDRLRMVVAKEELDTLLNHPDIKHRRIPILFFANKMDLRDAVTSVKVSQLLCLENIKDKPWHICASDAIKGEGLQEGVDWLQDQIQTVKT
# B2: ADP-ribosylation factor-like protein 6 (Homo sapiens), Q9H0F7-1 (parent)
# chain: B1 partner
# partner: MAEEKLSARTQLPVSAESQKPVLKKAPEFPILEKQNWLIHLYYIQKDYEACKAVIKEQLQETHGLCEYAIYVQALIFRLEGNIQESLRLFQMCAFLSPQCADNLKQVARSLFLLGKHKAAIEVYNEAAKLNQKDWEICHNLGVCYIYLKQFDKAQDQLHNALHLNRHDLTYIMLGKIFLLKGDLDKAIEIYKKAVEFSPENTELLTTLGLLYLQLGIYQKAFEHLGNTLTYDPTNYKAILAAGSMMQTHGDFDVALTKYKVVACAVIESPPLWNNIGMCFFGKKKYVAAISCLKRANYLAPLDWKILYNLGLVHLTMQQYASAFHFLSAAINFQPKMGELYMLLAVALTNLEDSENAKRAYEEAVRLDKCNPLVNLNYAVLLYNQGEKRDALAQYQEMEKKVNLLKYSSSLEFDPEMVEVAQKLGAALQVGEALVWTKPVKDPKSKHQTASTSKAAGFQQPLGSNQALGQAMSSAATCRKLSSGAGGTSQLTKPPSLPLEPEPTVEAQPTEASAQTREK
# Variants of: B1
# Conditions: with ARL6, Q9H0F7-1
row,Variant,effect of a mutation on the interaction
1,M390R,disrupting interaction strength

# Variants of: B1
# Conditions: with ARL6, Q9H0F7-1
# Remark: another data set of the same source
row,Variant,effect of a mutation on the interaction
1,I399E,disrupting interaction strength
2,R404A,disrupting interaction strength

# Variants of: B2
# Conditions: with bbs4_bovin BBS4, Q1JQ97
row,Variant,effect of a mutation on the interaction
1,E108A,disrupting interaction strength
2,R77A,disrupting interaction strength
3,L100E,disrupting interaction strength
